From publication PMC10397319, “The phosphatidylinositol (4,5)-bisphosphate-Rab35 axis regulates migrasome formation” (Cell Research, 2023)
Ends that are not written are not given here.

Target: T1, His-GFP-Rab35-Q67L (rat, UniProt Q5U316 1-201, Q67L)
T1 construct: Rab35, cloned from rat cDNA, constitutively active mutant Q67L; the methods describe only the WT purification; also called constitutively active Rab35-Q67L; active Rab35; source: cloned into pET21b, purified; not shown: GFP, N-terminal, kept
Assay: dual-color fluorescence cross-correlation spectroscopy (dcFCCS); both free in solution; 100 nM GFP-Rab35 mixed with 500 nM Cy5-ITGα5-cyto; 20 mM HEPES pH 7.5, 100 mM NaCl, 2 mM MgCl2, 0.1% BSA; 25 °C; 5 min recording, three repeats
Conditions: both partners purified

T1 sequence (Q5U316 whole entry Q67L): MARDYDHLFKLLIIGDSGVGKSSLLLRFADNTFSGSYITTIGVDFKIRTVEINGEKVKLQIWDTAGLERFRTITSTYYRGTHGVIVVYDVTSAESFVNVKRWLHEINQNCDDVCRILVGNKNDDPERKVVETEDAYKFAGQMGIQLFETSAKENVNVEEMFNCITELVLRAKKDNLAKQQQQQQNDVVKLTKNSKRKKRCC

B1: Cy5-ITGα5-cyto-WT (peptide)
peptide: YKLGFFKRSLPYGTAMEKAQLKPPATSDA
modifications: also: Sulfo-Cy5 label, site not given here
notes: also called cytosolic domain of integrin α5; WT peptide; source: synthetic peptide (Synpeptide Co., Ltd.), labelled with Sulfo-Cy5 NHS ester
- binding result: binds
